According to article PMC5013273:

Biological target: zona pellucida of in vitro matured (IVM) porcine oocytes (pig (endogenous on porcine oocytes))

“full-length rabbit OVGP1, recombinant, histidine-tagged (natural protein)” was tested, and the ZP digestion time in 0.5% pronase after 1 hr exposure of IVM porcine oocytes to 5, 50 and 125 μg/ml rOVGP1 was 989 min.

B1: truncated porcine OVGP1 lacking region D (regions A and B, 481 aa), recombinant, histidine-tagged (domain or fragment)
chain: HKLVCYFANWAFSRPGPASILPRDLDPFLCTHLVFAFASMNDSQIVAKDARDESIFYPEFNQLKERNEKLKTLLSIGGWNFGTSRFTTMLSTFTNREKFIRSAIGLLRTHGFDGLDLFFLYPGLRGSPRRDRWNFLFLLEELLLAFRREAQLTMRPRLLLSAAVSADPHVIQKAYDVRLLGRLLDFINVLSYDLHGSWEKVTGHNSPLFSLSDDPKSSAYTMNYWRKLGAPPEKLLMGFPTYGRTFRLLKASKNELGAEAVGPASPGKYTKQAGFLAYYEVCSFVQRAKKRWIDHQYVPYAYRGKEWVGYDDDISFSYKAFFIKKEHFGGAMVWTLDLDDVRGTFCGTGPFPLVYMLNDLLLKAEVSSTLSPGFGLSTTVNSSRTCPESLAVTKDLTTDLGILPLGGEAVATETHGRSDNMTVTPGGGLVAPTRPTLSFGKLTVAPEGKTESPGEKAMTP
Work on B1 yielded a ZP digestion time in 0.5% pronase after 1 hr exposure of IVM porcine oocytes to 125 and 250 μg/ml pOVGP1AB of 7.75 h.

B2: full-length porcine OVGP1 (oviduct-specific glycoprotein, oviductin), recombinant, histidine-tagged (natural protein)
chain: HKLVCYFANWAFSRPGPASILPRDLDPFLCTHLVFAFASMNDSQIVAKDARDESIFYPEFNQLKERNEKLKTLLSIGGWNFGTSRFTTMLSTFTNREKFIRSAIGLLRTHGFDGLDLFFLYPGLRGSPRRDRWNFLFLLEELLLAFRREAQLTMRPRLLLSAAVSADPHVIQKAYDVRLLGRLLDFINVLSYDLHGSWEKVTGHNSPLFSLSDDPKSSAYTMNYWRKLGAPPEKLLMGFPTYGRTFRLLKASKNELGAEAVGPASPGKYTKQAGFLAYYEVCSFVQRAKKRWIDHQYVPYAYRGKEWVGYDDDISFSYKAFFIKKEHFGGAMVWTLDLDDVRGTFCGTGPFPLVYMLNDLLLKAEVSSTLSPGFGLSTTVNSSRTCPESLAVTKDLTTDLGILPLGGEAVATETHGRSDNMTVTPGGGLVAPTRPTLSFGKLTVAPEGKTESPGEKAMTPVGHPSVTPGDMSVPPVPIQTGDRITPPRRQAVAPEKMTLPSGKRSD
Work on B2 yielded a ZP digestion time in 0.5% pronase after 1 hr exposure of IVM porcine oocytes to 125 and 250 μg/ml pOVGP1 of 102 min.
